Patent publication US20200115430A1 (I2O THERAPEUTICS, published 2020)
Starred links: 1 amine or outer side, 2 acyl side, 3 side chain; linkers in the order of their positions; H or OH if unused. Positions of bridges follow the written chain, without caps; N, C: chain ends. Non-standard residues stand in square brackets, D forms with d. Groups on a side chain read outwards from the residue. Primed or numbered codes have the meaning given here. No end group written: not given here. *: point of attachment. dpeg″ = —[CO(CH2)O(CH2)2O(CH2)NH]— spacer unit, O=C(COCCOCN[*:1])[*:2]; C20 diacid = O=C(O)CCCCCCCCCCCCCCCCCCC(=O)*; C18 diacid = O=C(O)CCCCCCCCCCCCCCCCC(=O)*; γGlu = O=C(O)[C@H](CCC(=O)[*:2])N[*:1]; Stearoyl = CCCCCCCCCCCCCCCCCC(=O)*

T1: human amylin 3 receptor (human, UniProt P30988 25-474; O60896 24-148)
T1 sequence (looked up) 1: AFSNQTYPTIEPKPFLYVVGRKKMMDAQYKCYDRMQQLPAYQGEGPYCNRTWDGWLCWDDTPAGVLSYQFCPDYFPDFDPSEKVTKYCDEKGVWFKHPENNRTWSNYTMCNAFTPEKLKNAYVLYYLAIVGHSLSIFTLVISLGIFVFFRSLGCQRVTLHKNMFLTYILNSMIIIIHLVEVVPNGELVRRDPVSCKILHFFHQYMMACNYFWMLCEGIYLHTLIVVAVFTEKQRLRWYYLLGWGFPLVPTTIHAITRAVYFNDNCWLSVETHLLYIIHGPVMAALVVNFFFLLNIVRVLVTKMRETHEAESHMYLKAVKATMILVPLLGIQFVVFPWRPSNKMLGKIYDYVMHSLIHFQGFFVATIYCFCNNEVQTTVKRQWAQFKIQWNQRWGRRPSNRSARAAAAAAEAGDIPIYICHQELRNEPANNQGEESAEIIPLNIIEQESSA
T1 sequence (looked up) 2: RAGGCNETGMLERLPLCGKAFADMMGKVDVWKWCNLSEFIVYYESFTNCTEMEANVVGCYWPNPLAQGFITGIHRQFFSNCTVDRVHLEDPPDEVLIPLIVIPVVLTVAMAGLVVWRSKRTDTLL

T2: human calcitonin receptor (human, UniProt P30988 25-474)
T2 sequence (looked up): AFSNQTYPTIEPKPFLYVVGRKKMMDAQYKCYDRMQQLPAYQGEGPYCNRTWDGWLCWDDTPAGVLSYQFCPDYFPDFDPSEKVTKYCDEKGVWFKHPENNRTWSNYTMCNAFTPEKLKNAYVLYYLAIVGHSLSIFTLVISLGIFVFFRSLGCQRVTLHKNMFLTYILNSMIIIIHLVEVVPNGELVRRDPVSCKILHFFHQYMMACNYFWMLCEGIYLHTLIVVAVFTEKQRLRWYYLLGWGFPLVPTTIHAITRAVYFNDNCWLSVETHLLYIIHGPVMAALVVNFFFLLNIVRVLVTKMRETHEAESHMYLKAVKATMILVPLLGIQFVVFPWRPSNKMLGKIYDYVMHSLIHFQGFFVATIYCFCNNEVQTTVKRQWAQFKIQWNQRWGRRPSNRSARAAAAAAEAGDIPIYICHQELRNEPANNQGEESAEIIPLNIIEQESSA


Tests used:
[1] = target: T1, human amylin 3 receptor; assay: cell-based or functional assay
[2] = target: T2, human calcitonin receptor; assay: cell-based or functional assay

pEC50 (cAMP accumulation), 0% HSA [1]	pEC50 (cAMP accumulation), 0.1% HSA [1]	pEC50 (cAMP accumulation), 4% HSA [1]	pEC50 (cAMP accumulation), 0% HSA [2]	pEC50 (cAMP accumulation), 0.1% HSA [2]	pEC50 (cAMP accumulation), 4% HSA [2]	Binder
11.6 pEC50	9.3 pEC50	8 pEC50	10.9 pEC50	8.5 pEC50	7.5 pEC50	K([γGlu-γGlu-dpeg″-dpeg″-γGlu-C20 diacid])CNTSTCATQRLANELHKSSNNFGPILPPTKVGSETY-NH2 (disulfide 2-7) [Compound A112]
11.7 pEC50	9.7 pEC50	8.5 pEC50	10.8 pEC50	8.5 pEC50	8 pEC50	SCNTSTCATQRLAN[dK]([γGlu-γGlu-dpeg″-C20 diacid])LHKSSNNFGPILPPTKVGSETY-NH2 (disulfide 2-7; N-terminus assumed; SMILES CC[C@H](C)[C@H](NC(=O)[C@@H]1CCCN1C(=O)CNC(=O)[C@H](Cc1ccccc1)NC(=O)[C@H](CC(N)=O)NC(=O)[C@H](CC(N)=O)NC(=O)[C@H](CO)NC(=O)[C@H](CO)NC(=O)[C@H](CCCCN)NC(=O)[C@H](Cc1c[nH]cn1)NC(=O)[C@H](CC(C)C)NC(=O)[C@@H](CCCCNC(=O)CC[C@H](NC(=O)CC[C@H](NC(=O)COCCOCNC(=O)CCCCCCCCCCCCCCCCCCC(=O)O)C(=O)O)C(=O)O)NC(=O)[C@H](CC(N)=O)NC(=O)[C@H](C)NC(=O)[C@H](CC(C)C)NC(=O)[C@H](CCCNC(=N)N)NC(=O)[C@H](CCC(N)=O)NC(=O)[C@@H](NC(=O)[C@H](C)NC(=O)[C@@H]1CSSC[C@H](NC(=O)[C@@H](N)CO)C(=O)N[C@@H](CC(N)=O)C(=O)N[C@@H]([C@@H](C)O)C(=O)N[C@@H](CO)C(=O)N[C@@H]([C@@H](C)O)C(=O)N1)[C@@H](C)O)C(=O)N[C@@H](CC(C)C)C(=O)N1CCC[C@H]1C(=O)N1CCC[C@H]1C(=O)N[C@H](C(=O)N[C@@H](CCCCN)C(=O)N[C@H](C(=O)NCC(=O)N[C@@H](CO)C(=O)N[C@@H](CCC(=O)O)C(=O)N[C@H](C(=O)N[C@@H](Cc1ccc(O)cc1)C(N)=O)[C@@H](C)O)C(C)C)[C@@H](C)O) [Compound A96]
12.3 pEC50	10.8 pEC50	9.2 pEC50	10.8 pEC50	9.5 pEC50	7.8 pEC50	SCNTSTCATQRLANEKHKSSNNFGPILPPTKVGSETY (L-Lys 16 acylated: K*(γGlu-dpeg-dpeg-(γGlu)4-CO(CH2)14CH3); disulfide bridge Cys2-Cys7; C-terminal amide) [Compound A5]
12 pEC50	10.4 pEC50	9.1 pEC50	11.2 pEC50	9 pEC50	8.1 pEC50	K([γGlu-γGlu-C20 diacid])CNTSTCATQRLANELHKSSNNFGPILPPTKVGSETY-NH2 (disulfide 2-7; N-terminus assumed; SMILES CC[C@H](C)[C@H](NC(=O)[C@@H]1CCCN1C(=O)CNC(=O)[C@H](Cc1ccccc1)NC(=O)[C@H](CC(N)=O)NC(=O)[C@H](CC(N)=O)NC(=O)[C@H](CO)NC(=O)[C@H](CO)NC(=O)[C@H](CCCCN)NC(=O)[C@H](Cc1c[nH]cn1)NC(=O)[C@H](CC(C)C)NC(=O)[C@H](CCC(=O)O)NC(=O)[C@H](CC(N)=O)NC(=O)[C@H](C)NC(=O)[C@H](CC(C)C)NC(=O)[C@H](CCCNC(=N)N)NC(=O)[C@H](CCC(N)=O)NC(=O)[C@@H](NC(=O)[C@H](C)NC(=O)[C@@H]1CSSC[C@H](NC(=O)[C@@H](N)CCCCNC(=O)CC[C@H](NC(=O)CC[C@H](NC(=O)CCCCCCCCCCCCCCCCCCC(=O)O)C(=O)O)C(=O)O)C(=O)N[C@@H](CC(N)=O)C(=O)N[C@@H]([C@@H](C)O)C(=O)N[C@@H](CO)C(=O)N[C@@H]([C@@H](C)O)C(=O)N1)[C@@H](C)O)C(=O)N[C@@H](CC(C)C)C(=O)N1CCC[C@H]1C(=O)N1CCC[C@H]1C(=O)N[C@H](C(=O)N[C@@H](CCCCN)C(=O)N[C@H](C(=O)NCC(=O)N[C@@H](CO)C(=O)N[C@@H](CCC(=O)O)C(=O)N[C@H](C(=O)N[C@@H](Cc1ccc(O)cc1)C(N)=O)[C@@H](C)O)C(C)C)[C@@H](C)O) [Compound A64]
12.4 pEC50	11.4 pEC50	10.1 pEC50	11.6 pEC50	10.3 pEC50	8.5 pEC50	SCNTSTCATQRLANE[dK]([γGlu-γGlu-γGlu-Stearoyl])HKSSNNFGPILPPTKVGSETY-NH2 (disulfide 2-7; N-terminus assumed; SMILES CCCCCCCCCCCCCCCCCC(=O)N[C@@H](CCC(=O)N[C@@H](CCC(=O)N[C@@H](CCC(=O)NCCCC[C@@H](NC(=O)[C@H](CCC(=O)O)NC(=O)[C@H](CC(N)=O)NC(=O)[C@H](C)NC(=O)[C@H](CC(C)C)NC(=O)[C@H](CCCNC(=N)N)NC(=O)[C@H](CCC(N)=O)NC(=O)[C@@H](NC(=O)[C@H](C)NC(=O)[C@@H]1CSSC[C@H](NC(=O)[C@@H](N)CO)C(=O)N[C@@H](CC(N)=O)C(=O)N[C@@H]([C@@H](C)O)C(=O)N[C@@H](CO)C(=O)N[C@@H]([C@@H](C)O)C(=O)N1)[C@@H](C)O)C(=O)N[C@@H](Cc1c[nH]cn1)C(=O)N[C@@H](CCCCN)C(=O)N[C@@H](CO)C(=O)N[C@@H](CO)C(=O)N[C@@H](CC(N)=O)C(=O)N[C@@H](CC(N)=O)C(=O)N[C@@H](Cc1ccccc1)C(=O)NCC(=O)N1CCC[C@H]1C(=O)N[C@H](C(=O)N[C@@H](CC(C)C)C(=O)N1CCC[C@H]1C(=O)N1CCC[C@H]1C(=O)N[C@H](C(=O)N[C@@H](CCCCN)C(=O)N[C@H](C(=O)NCC(=O)N[C@@H](CO)C(=O)N[C@@H](CCC(=O)O)C(=O)N[C@H](C(=O)N[C@@H](Cc1ccc(O)cc1)C(N)=O)[C@@H](C)O)C(C)C)[C@@H](C)O)[C@@H](C)CC)C(=O)O)C(=O)O)C(=O)O) [Compound A13]
11.5 pEC50	10.1 pEC50	8.7 pEC50	10.5 pEC50	9 pEC50	7.9 pEC50	K([γGlu-γGlu-C18 diacid])CNTSTCATQRLANELHKSSNNFGPILPPTKVGSETY-NH2 (disulfide 2-7; N-terminus assumed; SMILES CC[C@H](C)[C@H](NC(=O)[C@@H]1CCCN1C(=O)CNC(=O)[C@H](Cc1ccccc1)NC(=O)[C@H](CC(N)=O)NC(=O)[C@H](CC(N)=O)NC(=O)[C@H](CO)NC(=O)[C@H](CO)NC(=O)[C@H](CCCCN)NC(=O)[C@H](Cc1c[nH]cn1)NC(=O)[C@H](CC(C)C)NC(=O)[C@H](CCC(=O)O)NC(=O)[C@H](CC(N)=O)NC(=O)[C@H](C)NC(=O)[C@H](CC(C)C)NC(=O)[C@H](CCCNC(=N)N)NC(=O)[C@H](CCC(N)=O)NC(=O)[C@@H](NC(=O)[C@H](C)NC(=O)[C@@H]1CSSC[C@H](NC(=O)[C@@H](N)CCCCNC(=O)CC[C@H](NC(=O)CC[C@H](NC(=O)CCCCCCCCCCCCCCCCC(=O)O)C(=O)O)C(=O)O)C(=O)N[C@@H](CC(N)=O)C(=O)N[C@@H]([C@@H](C)O)C(=O)N[C@@H](CO)C(=O)N[C@@H]([C@@H](C)O)C(=O)N1)[C@@H](C)O)C(=O)N[C@@H](CC(C)C)C(=O)N1CCC[C@H]1C(=O)N1CCC[C@H]1C(=O)N[C@H](C(=O)N[C@@H](CCCCN)C(=O)N[C@H](C(=O)NCC(=O)N[C@@H](CO)C(=O)N[C@@H](CCC(=O)O)C(=O)N[C@H](C(=O)N[C@@H](Cc1ccc(O)cc1)C(N)=O)[C@@H](C)O)C(C)C)[C@@H](C)O) [Compound A65]
11.1 pEC50	8.8 pEC50	7.6 pEC50	10.5 pEC50	8.1 pEC50	7.1 pEC50	SCNTSTCATQRLAN[dK]([γGlu-γGlu-dpeg″-γGlu-C20 diacid])LHKSSNNFGPILPPTKVGSETY-NH2 (disulfide 2-7) [Compound A100]
